Results as given in patent publication US20230122364A1.

Experiments:
[1] = target: SRBD subdomain of SARS-CoV-2 S protein (SARS-CoV-2) (UniProt P0DTC2); assay: ELISA on coated SRBD
[2] = target: SARS-CoV S2Pecto antigen (SARS-CoV) (UniProt P59594); assay: ELISA on coated SARS-CoV S2Pecto

“rCR3022 (recombinant form of the cross-reactive SARS-CoV SRBD mAb CR3022) (antibody)” gave an EC50 [1] of 1.1 ng/mL and an EC50 [2] of 5.2 ng/mL.
